Key:
Experiment in all cases: pull-down
[1] = target: T1, AL4 (recombinant, pull-down) (Arabidopsis thaliana, UniProt O81488 1-255)
T1 sequence (looked up): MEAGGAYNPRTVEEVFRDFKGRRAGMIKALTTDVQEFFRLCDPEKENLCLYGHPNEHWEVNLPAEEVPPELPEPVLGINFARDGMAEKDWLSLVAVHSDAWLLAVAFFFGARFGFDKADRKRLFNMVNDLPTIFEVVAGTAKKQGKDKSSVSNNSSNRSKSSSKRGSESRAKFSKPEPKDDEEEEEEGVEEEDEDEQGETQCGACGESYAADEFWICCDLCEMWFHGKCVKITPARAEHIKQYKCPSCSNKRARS

[2] = target: T2, BRM-3 (C-terminal domain of the BAS-type SWI/SNF chromatin remodeler BRM, 1,596-2,193 aa) (Arabidopsis thaliana, UniProt Q6EVK6 1596-2193)
T2 sequence (looked up): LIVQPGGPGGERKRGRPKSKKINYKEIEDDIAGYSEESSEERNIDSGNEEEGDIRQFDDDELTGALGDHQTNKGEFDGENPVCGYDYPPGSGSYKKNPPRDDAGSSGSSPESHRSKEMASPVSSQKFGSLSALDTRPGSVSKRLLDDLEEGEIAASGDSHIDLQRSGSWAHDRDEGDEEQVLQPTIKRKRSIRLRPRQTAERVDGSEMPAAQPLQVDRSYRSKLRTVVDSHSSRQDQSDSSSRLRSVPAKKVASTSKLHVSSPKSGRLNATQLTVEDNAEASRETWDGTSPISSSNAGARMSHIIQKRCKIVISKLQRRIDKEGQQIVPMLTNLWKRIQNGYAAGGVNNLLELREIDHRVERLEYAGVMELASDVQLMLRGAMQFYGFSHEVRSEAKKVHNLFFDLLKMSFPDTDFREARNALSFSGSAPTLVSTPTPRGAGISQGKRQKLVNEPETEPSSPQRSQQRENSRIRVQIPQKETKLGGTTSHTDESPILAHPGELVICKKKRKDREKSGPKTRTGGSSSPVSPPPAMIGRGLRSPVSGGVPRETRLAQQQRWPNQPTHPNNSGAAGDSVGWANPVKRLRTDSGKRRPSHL

[3] = target: T3, MINU2-3 (C-terminal domain of the MAS catalytic enzyme MINU2, 677-1,064 aa) (Arabidopsis thaliana, UniProt F4K128 677-1064)
T3 sequence (looked up): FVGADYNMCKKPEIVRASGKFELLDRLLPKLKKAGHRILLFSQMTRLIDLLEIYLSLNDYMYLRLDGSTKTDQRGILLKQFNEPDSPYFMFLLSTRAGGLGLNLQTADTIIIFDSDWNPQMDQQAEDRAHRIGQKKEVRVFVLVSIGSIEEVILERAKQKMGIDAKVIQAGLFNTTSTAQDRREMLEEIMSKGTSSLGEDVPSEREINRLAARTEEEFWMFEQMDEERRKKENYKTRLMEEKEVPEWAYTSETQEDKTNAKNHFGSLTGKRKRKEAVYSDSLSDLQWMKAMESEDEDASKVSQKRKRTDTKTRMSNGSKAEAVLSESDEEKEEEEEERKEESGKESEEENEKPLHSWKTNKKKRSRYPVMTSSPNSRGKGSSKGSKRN

[4] = target: T4, HDA19 (HDAC catalytic subunit) (Arabidopsis thaliana, UniProt O22446 1-501)
T4 sequence (looked up): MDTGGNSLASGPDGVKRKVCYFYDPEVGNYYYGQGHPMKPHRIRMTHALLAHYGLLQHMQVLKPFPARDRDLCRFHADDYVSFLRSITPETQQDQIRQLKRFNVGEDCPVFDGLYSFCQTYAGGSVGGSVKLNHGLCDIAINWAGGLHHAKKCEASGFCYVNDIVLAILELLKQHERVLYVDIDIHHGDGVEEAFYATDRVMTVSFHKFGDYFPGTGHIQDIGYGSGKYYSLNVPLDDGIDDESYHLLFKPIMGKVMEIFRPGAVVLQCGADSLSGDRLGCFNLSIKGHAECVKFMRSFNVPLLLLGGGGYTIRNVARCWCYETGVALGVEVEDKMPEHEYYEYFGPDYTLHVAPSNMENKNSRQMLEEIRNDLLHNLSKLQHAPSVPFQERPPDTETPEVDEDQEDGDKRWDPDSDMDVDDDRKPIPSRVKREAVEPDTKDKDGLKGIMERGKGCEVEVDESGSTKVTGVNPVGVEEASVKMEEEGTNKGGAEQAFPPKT

[5] = target: T5, UBP5 (H2A deubiquitinase, subunit of the PEAT complex) (Arabidopsis thaliana, UniProt O22207 1-924)
T5 sequence (looked up): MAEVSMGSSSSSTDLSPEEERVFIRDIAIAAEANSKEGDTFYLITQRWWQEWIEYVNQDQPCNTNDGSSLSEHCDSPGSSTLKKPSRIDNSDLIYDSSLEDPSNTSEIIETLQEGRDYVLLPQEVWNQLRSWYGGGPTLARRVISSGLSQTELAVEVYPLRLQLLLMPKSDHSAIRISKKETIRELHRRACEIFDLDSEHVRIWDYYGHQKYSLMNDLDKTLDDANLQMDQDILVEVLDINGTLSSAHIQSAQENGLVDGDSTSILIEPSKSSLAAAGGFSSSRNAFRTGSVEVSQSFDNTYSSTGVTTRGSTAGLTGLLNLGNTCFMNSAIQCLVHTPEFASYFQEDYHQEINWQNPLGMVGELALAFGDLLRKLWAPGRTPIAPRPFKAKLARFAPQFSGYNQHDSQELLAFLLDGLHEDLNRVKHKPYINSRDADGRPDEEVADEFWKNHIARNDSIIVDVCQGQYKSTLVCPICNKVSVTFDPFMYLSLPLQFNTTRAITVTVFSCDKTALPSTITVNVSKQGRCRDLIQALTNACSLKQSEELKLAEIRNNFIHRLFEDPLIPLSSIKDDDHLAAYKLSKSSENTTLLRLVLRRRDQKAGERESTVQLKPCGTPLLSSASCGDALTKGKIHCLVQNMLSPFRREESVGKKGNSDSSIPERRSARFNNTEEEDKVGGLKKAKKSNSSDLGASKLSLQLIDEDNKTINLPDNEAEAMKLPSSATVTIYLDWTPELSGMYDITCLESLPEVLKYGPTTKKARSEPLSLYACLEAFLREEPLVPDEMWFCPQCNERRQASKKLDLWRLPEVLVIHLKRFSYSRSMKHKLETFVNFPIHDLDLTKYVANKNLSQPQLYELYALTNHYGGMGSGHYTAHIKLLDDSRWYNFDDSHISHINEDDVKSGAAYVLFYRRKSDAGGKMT

[6] = target: T6, RING1A (recombinant, pull-down) (Arabidopsis thaliana, UniProt Q9FKW0 1-522)
T6 sequence (looked up): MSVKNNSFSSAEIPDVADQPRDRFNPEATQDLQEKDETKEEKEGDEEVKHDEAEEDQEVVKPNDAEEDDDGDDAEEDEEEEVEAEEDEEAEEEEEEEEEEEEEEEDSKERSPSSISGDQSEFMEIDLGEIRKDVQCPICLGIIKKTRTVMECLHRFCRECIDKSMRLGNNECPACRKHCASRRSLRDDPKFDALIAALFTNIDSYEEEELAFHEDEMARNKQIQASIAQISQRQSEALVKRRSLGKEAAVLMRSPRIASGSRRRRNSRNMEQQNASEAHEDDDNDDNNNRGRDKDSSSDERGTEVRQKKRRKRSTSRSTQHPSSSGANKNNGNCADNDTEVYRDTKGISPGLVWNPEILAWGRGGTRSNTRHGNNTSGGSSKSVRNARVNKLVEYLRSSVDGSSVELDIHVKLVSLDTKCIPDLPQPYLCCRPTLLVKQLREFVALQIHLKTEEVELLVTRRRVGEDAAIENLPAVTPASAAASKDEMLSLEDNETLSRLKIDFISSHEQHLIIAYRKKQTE

[7] = target: T7, GATA1 (recombinant, pull-down) (Arabidopsis thaliana, UniProt Q8LAU9 1-274)
T7 sequence (looked up): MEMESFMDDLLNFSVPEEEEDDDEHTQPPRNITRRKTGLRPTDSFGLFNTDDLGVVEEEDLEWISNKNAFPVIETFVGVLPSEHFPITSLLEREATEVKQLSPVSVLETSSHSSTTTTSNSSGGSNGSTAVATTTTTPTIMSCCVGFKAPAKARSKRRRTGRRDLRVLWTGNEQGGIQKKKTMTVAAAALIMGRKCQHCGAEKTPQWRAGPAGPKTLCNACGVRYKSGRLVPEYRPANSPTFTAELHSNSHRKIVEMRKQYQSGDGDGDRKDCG

[8] = target: T8, VAL1 (recombinant, pull-down) (Arabidopsis thaliana, UniProt Q8W4L5 1-790)
T8 sequence (looked up): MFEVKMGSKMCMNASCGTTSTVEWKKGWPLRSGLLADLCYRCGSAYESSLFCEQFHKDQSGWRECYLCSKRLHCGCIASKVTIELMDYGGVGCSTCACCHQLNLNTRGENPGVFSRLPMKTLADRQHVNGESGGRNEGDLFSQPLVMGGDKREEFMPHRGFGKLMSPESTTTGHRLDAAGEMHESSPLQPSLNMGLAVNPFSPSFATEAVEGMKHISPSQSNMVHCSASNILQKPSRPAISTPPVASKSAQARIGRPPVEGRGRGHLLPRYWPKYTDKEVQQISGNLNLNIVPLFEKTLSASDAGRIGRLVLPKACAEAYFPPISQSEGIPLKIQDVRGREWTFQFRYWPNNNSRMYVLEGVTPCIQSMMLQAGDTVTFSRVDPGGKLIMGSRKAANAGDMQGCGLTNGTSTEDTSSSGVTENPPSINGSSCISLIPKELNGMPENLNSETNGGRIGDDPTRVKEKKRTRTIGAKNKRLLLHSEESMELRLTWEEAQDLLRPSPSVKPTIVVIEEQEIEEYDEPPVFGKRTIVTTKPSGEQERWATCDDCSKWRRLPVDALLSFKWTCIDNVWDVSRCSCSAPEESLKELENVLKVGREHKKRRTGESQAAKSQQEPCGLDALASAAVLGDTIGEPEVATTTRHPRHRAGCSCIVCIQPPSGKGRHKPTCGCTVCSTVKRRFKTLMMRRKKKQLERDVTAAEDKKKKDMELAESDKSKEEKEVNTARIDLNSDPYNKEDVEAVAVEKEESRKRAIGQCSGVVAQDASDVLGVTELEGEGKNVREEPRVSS

[9] = target: ZF2 (recombinant, pull-down) (Arabidopsis thaliana, UniProt Q9SSW2 1-273)

Measured: binding result

Chain of ZF2 (recombinant, pull-down) (Q9SSW2 whole entry): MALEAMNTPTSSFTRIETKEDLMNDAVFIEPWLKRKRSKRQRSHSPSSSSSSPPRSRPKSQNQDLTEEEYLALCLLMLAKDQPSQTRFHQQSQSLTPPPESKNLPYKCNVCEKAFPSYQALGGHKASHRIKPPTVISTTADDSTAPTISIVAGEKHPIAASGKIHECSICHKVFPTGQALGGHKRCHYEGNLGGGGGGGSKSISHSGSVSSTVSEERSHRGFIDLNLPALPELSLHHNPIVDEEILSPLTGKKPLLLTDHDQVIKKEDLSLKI

B1: AL2 (recombinant, pull-down) (natural protein, Arabidopsis thaliana, UniProt Q9SRM4 1-246, looked up)
chain: MAAAAVSSNPRTVEEIFKDYSARRAALLRALTKDVDDFYSQCDPEKENLCLYGHPNESWEVNLPAEEVPPELPEPALGINFARDGMQRKDWLSLVAVHSDCWLLSVSFYFGARLNRNERKRLFSLINDLPTLFDVVTGRKAMKDNKPSSDSGSKSRNGTKRSIDGQTKSSTPKLMEESYEEEEEEDEHGDTLCGSCGGHYTNEEFWICCDVCERWYHGKCVKITPAKAESIKQYKCPPCCAKKGRQ
binds: all assays above

Reference: doi:10.1101/2024.09.12.612777 (bioRxiv, 2024)
